Test results taken from patent publication US20240010721A1 (HARBOUR BIOMED SHANGHAI, published 2024).

Experiments:
[1] = target: T1, human ROR1 (hROR1) on cells (human, UniProt Q01973 30-937); experiment: FACS, A549 cells
T1 construct: whole, on cells; the cell line is named under assay; also called HEK293T-hROR1; 293T-hROR1
Experimental: (§1) The binding properties were characterized by FACS. The recombinant antibodies obtained above were serially diluted to 9 different concentrations and incubated for 1 h, and then determined for the binding ability with HEK293T-hROR1, CHO-K1-cynoROR1 and A549 cell lines (endogenously expressing ROR1), respectively. The secondary antibody was then incubated for 1 h. The results are shown in FIG. 4-6 and Table 7-2 below.

[2] = target: T1, human ROR1 (hROR1) on cells; experiment: FACS, HEK293T-hROR1 cells
Experimental: as §1

[3] = target: T2, cynomolgus ROR1 (cynoROR1) on CHO-K1 cells (cynomolgus, UniProt A0A2K5WTX7 30-937); experiment: FACS, CHO-K1-cynoROR1 cells
T2 construct: whole, on cells; also called CHO-K1-cynoROR1; CHO-K1-cyROR1
Experimental: as §1

hROR2ECD-his [4] = target: T3, hROR2ECD-his (human, UniProt Q01974 34-403); experiment: ELISA, plate coated with hROR2 ECD-his
T3 construct: extracellular domain; bought, Acrobiosystems R02-H52E5; also called huROR2-his
Experimental: (§2) Screening by ELISA assay: 96-well plates (Corning 9018) were coated with 1 μg/mL hROR1 ECD-his/hROR2 ECD-his/mROR1 ECD-his proteins prepared with PBS in Example 1a above and incubated at 4° C. overnight. The liquid was then discarded, and the plates were washed 3 times with PBST, blocked with 5% milk for 2 h at room temperature, and washed 3 times with PBST. The taken supernatant was added at 100 μL/well, and the plates were incubated at room temperature for 1 h, followed by washing 3 times with PBST. 100 μL/well of secondary antibody (Sigma, Cat#: A8592) was added, the plates were incubated at room temperature for 1 h, and then washed. TMB was then added to the plates at 100 μL/well and incubated for 15 min at room temperature. Thereafter, the reaction was terminated and data were read.
(§3) a. Results of ELISA assay (the ELISA assay was performed according to the same procedures as in Example 2c, except that the added samples were recombinant antibodies and the secondary antibody was a-Fc (Genscript, Cat#: A01854))
The corresponding values in the table are the measured median fluorescence intensity (MFI).

Human ROR1-ECD-his = target: T4, Human ROR1-ECD-his (human, UniProt Q01973 30-406); experiment: ELISA, plate coated with hROR1 ECD-his
T4 construct: extracellular domain; bought, Acrobiosystems RO1-H522y; also called hROR1-ECD-his; hROR1 ECD-his
Experimental: as §2, §3

hROR2ECD-his [5] = target: T3, hROR2ECD-his; experiment: ELISA, plate coated with hROR2 ECD-his; remark: listed apart in the source
Experimental: as §2, §3

[6] = target: ROR1 (antigen of the KD determination and of the Octet dissociation measurement) (UniProt Q01973 30-403, limits assumed); experiment: method not stated (conventional procedures)
[7] = target: T1, human ROR1 (hROR1) on cells; experiment: FACS, HEK293T-hROR1 cells; cytometer saturated
Experimental: as §1

Chain of ROR1 (antigen of the KD determination and of the Octet dissociation measurement) (Q01973 30-403 limits assumed): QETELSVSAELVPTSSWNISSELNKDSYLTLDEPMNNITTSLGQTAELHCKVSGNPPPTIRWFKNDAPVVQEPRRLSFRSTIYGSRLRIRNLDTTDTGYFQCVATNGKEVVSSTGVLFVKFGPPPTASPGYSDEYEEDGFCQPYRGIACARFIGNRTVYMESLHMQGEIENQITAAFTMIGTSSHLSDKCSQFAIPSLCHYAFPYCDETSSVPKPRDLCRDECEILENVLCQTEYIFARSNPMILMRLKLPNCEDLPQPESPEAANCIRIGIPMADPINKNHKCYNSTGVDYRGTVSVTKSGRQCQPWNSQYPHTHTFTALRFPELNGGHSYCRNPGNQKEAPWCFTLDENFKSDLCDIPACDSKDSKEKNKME
T3 sequence (Q01974 34-403): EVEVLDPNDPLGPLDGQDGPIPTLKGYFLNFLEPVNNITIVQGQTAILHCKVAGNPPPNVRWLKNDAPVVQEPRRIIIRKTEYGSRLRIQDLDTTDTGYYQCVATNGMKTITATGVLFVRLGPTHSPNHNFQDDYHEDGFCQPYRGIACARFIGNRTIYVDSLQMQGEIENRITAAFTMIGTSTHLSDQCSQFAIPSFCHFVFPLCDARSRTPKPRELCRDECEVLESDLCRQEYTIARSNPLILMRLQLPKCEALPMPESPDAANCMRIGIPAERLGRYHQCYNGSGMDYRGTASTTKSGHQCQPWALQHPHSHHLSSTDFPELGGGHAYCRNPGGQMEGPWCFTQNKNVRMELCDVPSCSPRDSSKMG
T1 sequence (Q01973 30-937): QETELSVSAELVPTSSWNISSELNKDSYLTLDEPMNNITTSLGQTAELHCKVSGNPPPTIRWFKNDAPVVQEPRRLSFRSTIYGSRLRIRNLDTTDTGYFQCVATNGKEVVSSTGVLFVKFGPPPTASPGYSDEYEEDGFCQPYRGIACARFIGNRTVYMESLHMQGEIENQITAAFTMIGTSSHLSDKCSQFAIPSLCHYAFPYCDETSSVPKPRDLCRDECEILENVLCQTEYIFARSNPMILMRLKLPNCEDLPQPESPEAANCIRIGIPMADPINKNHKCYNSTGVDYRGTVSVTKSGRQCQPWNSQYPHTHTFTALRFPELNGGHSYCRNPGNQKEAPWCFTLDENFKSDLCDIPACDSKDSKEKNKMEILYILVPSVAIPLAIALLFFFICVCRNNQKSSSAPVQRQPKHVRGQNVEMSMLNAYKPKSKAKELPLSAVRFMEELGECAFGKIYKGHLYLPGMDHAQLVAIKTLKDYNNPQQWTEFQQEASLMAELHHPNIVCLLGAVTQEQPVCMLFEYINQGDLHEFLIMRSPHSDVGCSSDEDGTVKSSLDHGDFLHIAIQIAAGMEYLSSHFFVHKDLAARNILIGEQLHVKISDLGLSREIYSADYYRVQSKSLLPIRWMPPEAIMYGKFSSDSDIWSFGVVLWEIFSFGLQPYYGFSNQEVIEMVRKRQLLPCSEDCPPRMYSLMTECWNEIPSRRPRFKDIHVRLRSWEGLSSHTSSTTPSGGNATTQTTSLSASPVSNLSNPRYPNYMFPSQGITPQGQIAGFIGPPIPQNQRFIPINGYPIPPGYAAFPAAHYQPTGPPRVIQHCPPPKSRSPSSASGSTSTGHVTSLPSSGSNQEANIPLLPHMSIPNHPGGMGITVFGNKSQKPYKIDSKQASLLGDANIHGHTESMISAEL
T4 sequence (Q01973 30-406): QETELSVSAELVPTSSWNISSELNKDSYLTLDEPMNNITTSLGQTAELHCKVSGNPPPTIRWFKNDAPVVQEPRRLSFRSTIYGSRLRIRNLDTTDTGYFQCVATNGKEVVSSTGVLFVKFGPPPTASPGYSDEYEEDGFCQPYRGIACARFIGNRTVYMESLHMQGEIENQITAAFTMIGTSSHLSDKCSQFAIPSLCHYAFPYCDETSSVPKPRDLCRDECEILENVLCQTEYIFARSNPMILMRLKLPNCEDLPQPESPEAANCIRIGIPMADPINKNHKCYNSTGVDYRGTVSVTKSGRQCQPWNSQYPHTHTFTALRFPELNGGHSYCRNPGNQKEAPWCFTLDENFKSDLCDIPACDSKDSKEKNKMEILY

Row | MAX(MFI) [1] | fold lower EC50 than reference PR000374 [2] | MAX(MFI) [3] | binding result (hROR2ECD-his [4]) | ELISA signal (called MFI) (Human ROR1-ECD-his) | ELISA signal (called MFI) (hROR2ECD-his [5]) | Kd [6] | koff [6] | kon [6] | MAX(MFI) [7] | Binder
1 | 4210 MFI | 10 fold | 27800 MFI | no binding | 2.51 | 0.0255 | 2.16 nM | 0.000867 s⁻¹ | 402000 M⁻¹ s⁻¹ | 262000 MFI | PR001368 (antibody, V domains shown, fully human IgG1, kappa) VH: QVQLVESGGGVVQPGRSLRLSCAASGFTFSTYGMHWVRQAPGKGLEWVAVIWYDGSDTDYADSVKGRFTISRDTSKNTLYLQMNSLRAEDTAVYYCAREQARSFDLWGRGTLVTVSS VL: DIVMTQSPSTLSASVGDRVTITCRASQSINSWLAWYQQKPGKAPKLLIYKASSLESGVPSRFSGSGSGTEFTLTISSLQPDDFATYYCQQYKSYSPMYTFGQGTKVEIKR
2 | 3920 MFI | 10 fold | 26000 MFI | no binding | 2.53 | 0.0335 | 3.97 nM | 0.00113 s⁻¹ | 285000 M⁻¹ s⁻¹ | 262000 MFI | PR001370 (antibody, V domains shown, fully human IgG1, kappa) VH: EVQLLESGGGVVQPGRSLRLSCAASGFTFSSYGMHWVRQAPGKGLEWVAVKWYDGISQNFADSVKGRFTISRDNSKNTLYLQMNSLRAEDTAVYYCARDLARSFDLWGRGTLVTVSS VL: DIVMTQSPSTLSASVGDRVTITCRASQSINNWLAWYQQKPGKAPKLLIYKASSLESGVPSRFSGSGSGTEFTLTISSLQPDDFATYYCQQYNSYSPMYTFGQGTKVDIKR
3 | 4520 MFI | 10 fold | 30700 MFI | no binding | 2.48 | 0.0335 | 1.51 nM | 0.000476 s⁻¹ | 316000 M⁻¹ s⁻¹ | 262000 MFI | PR001352 (antibody, human IgG1, kappa, V domains shown, fully human IgG1, kappa) VH: EVQLLESGGGVVQPGRSLRLSCAASGFTFSSYGMHWVRQAPGKGLEWVAVKWYDGISQNFADSVKGRFTISRDNSKNTLYLQMNSLRAEDTAVYYCARDLARSFDLWGRGTLVTVSS VL: DIQLTQSPSSLSASVGDRVTITCRASQTINNWLAWYQQKPGKAPKLLIYKASSLESGVPSRFSGSGSGTEFTLTISSLQPDDFATYYCQQYNSYSPMYTFGQGTKVEIKR
4 | 4970 MFI | 10 fold | 27300 MFI | no binding | 2.47 | 0.049 | 1.07 nM | 0.000518 s⁻¹ | 482000 M⁻¹ s⁻¹ | 262000 MFI | PR001358 (antibody, human IgG1, kappa, V domains shown, fully human IgG1, kappa) VH: QVQLVQSGGGVVQPGRSLRLSCAASGFTFSSYAMHWVRQAPGKGLEWVAIMWYDGSNTDYADSVKGRFTISRDTSKNTLFLQMNSLRAEDTAVYYCAREQARSFDLWGRGTLVTVSS VL: DIVMTQSPSTLSASVGDRVTITCRASQSINSWLAWYQQKPGKAPKLLIYKASNLESGVPSRFSGSGSGTEFTLTISSLQPDDFATYYCQQYKSYSPMYTFGQGTKVDIKR
5 | 4110 MFI | 10 fold | 28400 MFI | no binding | 2.38 | 0.0235 | 1.76 nM | 0.000525 s⁻¹ | 298000 M⁻¹ s⁻¹ | 262000 MFI | PR001371 (antibody, human IgG1, kappa, V domains shown, fully human IgG1, kappa) VH: QVQLVESGGGVVQPGRSLRLSCAASGFTFSSYGMLWVRQAPGKGLEWVAVAWYDGVSEDYADSVKGRFTISRDNSMNTLSLQMNSLRAEDTAVYYCAREQARSFDLWGRGTLVTVSS VL: DIQLTQSPSSLSASVGDRVTITCRASQTINNWLAWYQQKPGKAPKLLIYKASSLESGVPSRFSGSGSGTEFTLTISSLQPDDFATYYCQQYNSYSPMYTFGQGTKVEIKR
